Assay [1] deals with IL3RA-PK (CD123 tagged with ProLink) in HEK293 IL3RA-PK/CSF2RB-EA cells (UniProt P26951).
Assay [2] shares this target. This is another data set of the same source.
The target of assay [3] is cell-surface CD3 epsilon on primary cynomolgus T cells (cynomolgus monkey) (UniProt Q95LI5). Description: saturation binding by flow cytometry on cynomolgus monkey T cells. (A flow cytometer gives signals particle by particle.)
For assay [4], the target named is cell-surface CD3 epsilon on primary human T cells (human) (UniProt P07766). Description: saturation binding by flow cytometry on primary human T cells (Donor 10006).
Sequence of cell-surface CD3 epsilon on primary human T cells (human) (P07766 23-207): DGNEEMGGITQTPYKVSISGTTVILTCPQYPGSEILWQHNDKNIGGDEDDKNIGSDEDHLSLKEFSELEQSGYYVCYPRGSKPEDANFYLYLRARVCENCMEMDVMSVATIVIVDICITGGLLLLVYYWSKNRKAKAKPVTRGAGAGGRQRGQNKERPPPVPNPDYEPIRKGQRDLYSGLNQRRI

Like-named read-outs stand apart in the source and are kept apart here.

Sequence of cell-surface CD3 epsilon on primary cynomolgus T cells (cynomolgus monkey) (Q95LI5 22-198): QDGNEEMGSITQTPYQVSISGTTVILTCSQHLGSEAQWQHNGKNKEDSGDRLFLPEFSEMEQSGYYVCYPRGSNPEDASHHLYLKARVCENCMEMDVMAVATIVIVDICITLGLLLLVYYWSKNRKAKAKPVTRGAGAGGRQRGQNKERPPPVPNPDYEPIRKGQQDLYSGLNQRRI

As for IL-3 (from UniProt P08700) (ligand), the EC50 (read off the curve): CD123/CD131 heteromerization (RLU) turned out to be 3 ng/mL in assay [1] and 6 ng/mL in assay [2].
Turning to SP34-2 (antibody), in assay [3], the Antigen binding sites/cell is 55000 sites/cell and the Kd (commonly the constant that tells how readily two partners part at equilibrium) was found to be 1.4 nM. In assay [4], the Ab binding sites/cell turned out to be 60000 sites/cell and the Kd came out at 4.2 nM.
